Tested on: TL-3

FIV protease (Feline Immunodeficiency Virus protease)
enzymatic reaction activity in a kinetic FRET assay with a fluorogenic substrate peptide over a 20 minute time course: the enzymatic activity was blocked by TL-3

Reference: US20080176209
